In one series the target is T1, CaSR (wildtype) (Homo sapiens, UniProt P41180).
T1 construct: expressed in transfected cells; host or cells: HEK293
T1 sequence (P41180 20-1078): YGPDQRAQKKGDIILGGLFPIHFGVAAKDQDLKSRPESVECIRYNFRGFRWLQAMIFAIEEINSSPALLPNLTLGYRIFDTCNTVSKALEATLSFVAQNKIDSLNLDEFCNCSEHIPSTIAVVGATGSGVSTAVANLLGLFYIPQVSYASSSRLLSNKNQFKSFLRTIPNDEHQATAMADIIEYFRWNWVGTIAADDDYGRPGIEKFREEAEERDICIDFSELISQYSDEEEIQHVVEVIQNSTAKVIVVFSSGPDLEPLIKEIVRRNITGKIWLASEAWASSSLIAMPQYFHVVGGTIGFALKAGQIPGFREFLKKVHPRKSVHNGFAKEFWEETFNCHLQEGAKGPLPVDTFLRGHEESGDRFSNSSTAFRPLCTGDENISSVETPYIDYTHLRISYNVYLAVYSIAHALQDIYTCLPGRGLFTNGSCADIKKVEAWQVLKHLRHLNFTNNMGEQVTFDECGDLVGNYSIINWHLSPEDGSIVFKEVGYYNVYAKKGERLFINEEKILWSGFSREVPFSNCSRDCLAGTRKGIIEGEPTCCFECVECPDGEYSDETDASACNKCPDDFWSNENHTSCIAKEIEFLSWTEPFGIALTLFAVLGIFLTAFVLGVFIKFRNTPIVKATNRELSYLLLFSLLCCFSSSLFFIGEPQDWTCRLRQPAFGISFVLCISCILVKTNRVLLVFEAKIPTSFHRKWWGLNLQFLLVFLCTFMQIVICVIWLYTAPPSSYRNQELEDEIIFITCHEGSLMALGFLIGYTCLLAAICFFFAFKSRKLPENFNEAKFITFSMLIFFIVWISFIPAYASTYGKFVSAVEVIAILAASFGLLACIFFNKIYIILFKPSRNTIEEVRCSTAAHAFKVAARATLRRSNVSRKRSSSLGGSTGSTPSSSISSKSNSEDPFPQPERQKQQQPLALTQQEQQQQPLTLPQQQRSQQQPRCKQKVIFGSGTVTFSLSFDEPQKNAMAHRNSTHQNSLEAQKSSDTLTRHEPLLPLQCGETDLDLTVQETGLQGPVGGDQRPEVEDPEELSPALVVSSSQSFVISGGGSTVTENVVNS
The series is described as follows: Epifluorescence imaging of CaSR mediated ER Ca^2+ dynamics using R-CatchER and Fura-2 in HEK293 cells. Particulars: for effect on frequency of ER Ca^2+ oscillations: in the presence of Ca^2+, HEK293 CaSR. The class given is cell-based. On the procedure: Cell culture and transfection. C2C12, HEK293 and HeLa cells were cultured and maintained in Dulbecco's modified Eagle's medium (DMEM) supplemented with 10% fetal bovine serum (FBS) and high glucose (4.5 g/L) at 37° C. R-CatchER, G-CatchER2, G-CEPIA1er, R-CEPIA1er or R-CatchER with GFP-CaSR (wt and mutations) were transfected into cells using Lipofectamine 3000 (Life Technologies), following the manufacturer's instructions. Seed cells onto sterilized 22 mm×40 mm glass microscope slides in 6 cm dishes until about 70% confluency, the day of transfection. The next day, 2 μg of plasmid were mixed with transfection reagent in the reduced serum media Opti-MEM for 4-6 h at 37° C. The media was then replaced with 3 mL of fresh DMEM and incubated at 37° C. for 48 h.
Epifluorescence imaging of class C GPCR mediated ER Ca^2+ dynamics using R-CatchER and Fura-2. HEK293 Cells transfected with R-CatchER and GFP-CaSR (wt and mutations) were incubated with Fura-2 for 30 mins at 37° C. then washed with 2 mL of physiological Ringer buffer (10 mM HEPES, 140 mM NaCl, 5 mM KCl, 1.2 mM MgCl2, 1.8 mM CaCl2) at pH 7.4). The coverslips were mounted on a bath chamber and placed on the stage of a Leica DM6100B inverted microscope with a Hamamatsu cooled EM-CCD camera and illuminated with a Till Polychrome V Xenon lamp. Cells were illuminated at 340 nm, 380 nm and 569 nm, in real-time, as cells were exposed to different concentrations of Ca^2+, cinacalcet, Phe, TNCA, or NPS2143.

The nature of series [1]: Calcium (Ca^2+) binding assay: fluorescence/absorbance titration of purified protein. Particulars: for Aholo/Aapo: absorbance at 569. On the procedure:
Calcium (Ca^2+) binding assay. 10 μM protein samples of mApple, EGFP, and mCherry variants were titrated with different concentrations of Ca^2+. Data were fitted with a 1:1 binding equation. Fluorescence intensities were collected using a Spectrofluorimeter (Photon Technology International, Inc.) and the absorbance values of Ca^2+-free and Ca^2+-loaded forms were determined using a Shimadzu UV-1601 spectrophotome.
Ca^2+ binding assay. Fluorescence measurements of mApple variants with increasing Ca^2+ concentrations were done in order to obtain the affinity of the sensor for Ca^2+ in vitro. Samples of 10 μM mApple variants with 5 μM EGTA were prepared in triplicate in 1 mL volumes in 10 mM Tris, pH 7.4. The samples were placed in quartz fluorescence cuvettes, and metal ion was titrated into each sample, in a stepwise manner, using 0.1 M and 1 M metal stock solutions. The fluorescence response of the indicator to increasing Ca^2+ concentrations was monitored using a fluorescence spectrophotometer (Photon Technology International, Canada) with the Felix32 fluorescence analysis software. The absorbance spectra before and after titration were obtained using a Shimadzu UV-1601 spectrophotometer.

Series [2] is described as follows: pKa determination of the chromophore. The format is physicochemical. On the procedure:
pKa determination. To measure the chromophore pKa of mApple, EGFP, and mCherry variants, the proteins were prepared in buffers (sodium acetate buffer for pH 3-5, MES buffer for pH 5-6, HEPES buffer for pH 6.5-8, TRIS buffer for pH 8.5-9) covering a pH range from 3 to 10. All samples were Incubated at 4° C. overnight, then the following day, the absorbance and fluorescence spectra were collected using a Shimadzu UV-1601 spectrophotometer and the Spectrofluorimeter.

Series [3] in a line: Quantum yield, extinction coefficient, and brightness determination. The class given is physicochemical. Also on record: key to Brightness: extinction coefficient × quantum yield. On the procedure:
Quantum yield, extinction coefficient, and brightness determination. The quantum yield values of all the variants were determined by measuring the emitted fluorescence intensities and absorbance intensities of the chromophore at different protein concentrations. The wildtype was used as a reference to calculate quantum yield. Brightness was defined as a visual perception in which a source appears to emit or reflect a given amount of light, which was obtained by multiplying the extinction coefficient and the quantum yield.

[4] abbreviates: mCherry based indicators, Ca^2+ induced fluorescence change.

Changes are numbered by the printed parent chain. In names and notes the source's numbering stands. Entries after “also recorded” stand apart in the source; their conditions may differ.

Take `C[C@H](CCC(=O)O)C[C@H](C)C[C@H](C)C(=O)/C=C(\O)[C@H](C)C[C@H](C)C/C=C/[C@@H](C)[C@@H](O)[C@@H](C)[C@@H](O)C[C@@H]1CC[C@@](C)([C@H]2CC[C@@](C)([C@@H](C)O)O2)O1` [ionomycin]: the “effect on cytosolic and ER Ca^2+ oscillations” value at CaSR (wildtype) (Tg 3 μM, 2-APB 100 μM, ionomycin 20 μM with 10 mM Ca^2+) was “eliminated; also recorded: abolished”.
`CC(C)(Cc1ccc2ccccc2c1)NC[C@@H](O)COc1cccc(Cl)c1C#N` [NPS2143]: the “effect on frequency of ER Ca^2+ oscillations” value at CaSR (wildtype) (R-CatchER) is “decreased the frequency”.
For `N[C@@H](Cc1ccccc1)C(=O)O` [L-Phe], the “Ca^2+ release from the ER, area under the curve (AUC)” value on CaSR (wildtype) (5 mM L-Phe alone, R-CatchER) came to 19.54±1.08. Moreover, the “effect on frequency of ER Ca^2+ oscillations” value on CaSR (wildtype) (R-CatchER) was “increased the frequency”. For the same molecule, the EC50 at CaSR (wildtype) (in the presence of L-Phe, read out with R-CatchER, read-out: EC50 of ER Ca^2+ mobilization by extracellular Ca^2+) amounted to 2700 ± 100 µM.

B1: mApple: red fluorescent scaffold protein, SEQ ID NO: 11 (protein)
chain: EENNMAIIKEFMRFKVHMEGSVNGHEFEIEGEGEGRPYEAFQTAKLKVTKGGPLPFAWDILSPQFMYGSKVYIKHPADIPDYFKLSFPEGFRWERVMNFEDGGIIHVNQDSSLQDGVFIYKVKLRGTNFPSDGPVMQKKTMGWEASEERMYPEDGALKSEIKKRLKLKDGGHYAAEVKTTYKAKKPVQLPGAYIVDIKLDIVSHNEDYTIVEQYERAEGRHSTGGMDELYK
With B1, the Fmax/Fmin in series [1] (EGFP and mApple variants) is reported as 1.02. Also, in series [1], the Aholo/Aapo is reported as 1.07 (569). The same molecule showed a pka in series [2] (scaffold, no apo/holo stated) of 6.26 ± 0.23. For the same molecule, in series [3] (scaffold, no apo/holo stated), the Brightness worked out at 0.37 ± 0.01, the “Extinction coefficient” value is 75000 M⁻¹ cm⁻¹ and the Fluorescence quantum yield was found to be 0.49 ± 0.01.

B2: mApple A145E/K198D/R216E/E218D: mApple variant, SEQ ID NO: 29 (protein)
chain: B1 chain with A145E, K198D, R216E, E218D
For B2, the Fmax/Fmin in series [1] (EGFP and mApple variants) is recorded as 2.64. Moreover, in series [1], the Aholo/Aapo is 1.59 (569).

B3: mApple A145D/K198D/R216E: mApple variant, SEQ ID NO: 26 (protein)
chain: B1 chain with A145D, K198D, R216E
With B3, in series [1] (EGFP and mApple variants), the Fmax/Fmin was determined as 3.75. For the same molecule, the Aholo/Aapo in series [1] was 1.57 (569).

B4: mApple A145E/K198E/R216E: mApple variant, SEQ ID NO: 30 (protein)
chain: B1 chain with A145E, K198E, R216E
For B4, the Fmax/Fmin in series [1] (EGFP and mApple variants) is 2.15. In series [1], the Aholo/Aapo is given as 1.04 (569).

B5: mApple K198D/R216D: mApple variant, SEQ ID NO: 24 (protein)
chain: B1 chain with K198D, R216D
Regarding B5, the Fmax/Fmin in series [1] (EGFP and mApple variants) turned out to be 2.48. In series [1], the Aholo/Aapo is 2.21 (569). Moreover, the pka in series [2] (Apo) is 7.04 ± 0.11. In series [2] (Holo), this molecule had a pka of 6.56 ± 0.11. In series [3] (Apo), the Brightness is reported as 0.15 ± 0.01, the “Extinction coefficient” value amounted to 38000 M⁻¹ cm⁻¹ and the Fluorescence quantum yield amounted to 0.40 ± 0.01. In series [3] (Holo), the Brightness was determined as 0.37 ± 0.01, the “Extinction coefficient” value worked out at 65000 M⁻¹ cm⁻¹ and the Fluorescence quantum yield is reported as 0.58 ± 0.01.

B6: mApple K198D: mApple variant, SEQ ID NO: 23 (protein)
chain: B1 chain with K198D
Regarding B6, the Fmax/Fmin in series [1] (EGFP and mApple variants) amounted to 1.17. For the same molecule, the Aholo/Aapo in series [1] is 1.41 (569). Also, the pka in series [2] (Apo) came out at 6.68 ± 0.09. The molecule further gave a pka in series [2] (Holo) of 6.90 ± 0.12. Further, in series [3] (Apo), the Brightness is 0.32 ± 0.01, the “Extinction coefficient” value turned out to be 59000 M⁻¹ cm⁻¹ and the Fluorescence quantum yield came to 0.54 ± 0.01. In addition, in series [3] (Holo), the Brightness stood at 0.42 ± 0.03, the “Extinction coefficient” value was 69000 M⁻¹ cm⁻¹ and the Fluorescence quantum yield stood at 0.61 ± 0.03.

B7: mApple A145E/E147D/K198D/R216E: mApple variant, SEQ ID NO: 27 (protein)
chain: B1 chain with A145E, E147D, K198D, R216E
For B7, in series [1] (EGFP and mApple variants), the Fmax/Fmin stood at 4.43. Besides, in series [1], the Aholo/Aapo was 1.66 (569).

B8: mApple A145D/E147D/K198D/R216E: mApple variant, SEQ ID NO: 28 (protein)
chain: B1 chain with A145D, E147D, K198D, R216E
For the molecule B8, the Fmax/Fmin in series [1] (EGFP and mApple variants) came to 3.23. Besides, the Aholo/Aapo in series [1] was 1.84 (569).

B9: mCherry A145E/N196D/K198D: mCherry based indicator attempt, 4 negatively charged residues (protein)
chain: EEDNMAIIKEFMRFKVHMEGSVNGHEFEIEGEGEGRPYEGTQTAKLKVTKGGPLPFAWDILSPQFMYGSKAYVKHPADIPDYLKLSFPEGFKWERVMNFEDGGVVTVTQDSSLQDGEFIYKVKLRGTNFPSDGPVMQKKTMGWEESSERMYPEDGALKGEIKQRLKLKDGGHYDAEVKTTYKAKKPVQLPGAYNVDIDLDITSHNEDYTIVEQYERAEGRHSTGGMDELYK
In the case of B9, in series [1] (setting [4]), the Fmax/Fmin came out at 0.93 ± 0.02.

B10: mCherry A145E/N196D/K198D/R216E: mCherry based indicator attempt, 5 negatively charged residues (protein)
chain: B9 chain with R216E
Regarding B10, in series [1] (setting [4]), the Fmax/Fmin worked out at 1.05 ± 0.06.

Source of the values: patent US20240369485A1, “FLUORESCENT SENSOR FOR MONITORING CALCIUM DYNAMICS” (priority 2021, published 2024).
